One molecule from PMC6484134 (2019) can be followed below.

The target in test [1] is Cul3NΔ22 (human Cul3 N-terminal domain, residues 23–388, I342R L346D) (human, UniProt Q13618 23-388, I342R | L346D). Kind of test: ITC.
In test [2] the target is Cul3N (human Cul3 N-terminal domain, residues 1–388, I342R L346D) (human, UniProt Q13618 1-388, I342R | L346D). Kind of test: ITC.
Chain of Cul3N (human Cul3 N-terminal domain, residues 1–388, I342R L346D) (Q13618 1-388 I342R/L346D): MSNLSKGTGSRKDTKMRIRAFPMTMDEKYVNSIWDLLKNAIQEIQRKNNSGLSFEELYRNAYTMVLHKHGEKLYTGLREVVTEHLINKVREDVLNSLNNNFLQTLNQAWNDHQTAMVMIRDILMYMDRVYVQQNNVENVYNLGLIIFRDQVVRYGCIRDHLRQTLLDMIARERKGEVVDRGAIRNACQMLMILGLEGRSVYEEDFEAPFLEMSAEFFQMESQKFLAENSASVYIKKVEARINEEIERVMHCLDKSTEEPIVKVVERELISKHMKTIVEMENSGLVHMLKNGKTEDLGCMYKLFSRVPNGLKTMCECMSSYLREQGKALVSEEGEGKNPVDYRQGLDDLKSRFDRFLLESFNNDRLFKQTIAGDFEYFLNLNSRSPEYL

Chain of Cul3NΔ22 (human Cul3 N-terminal domain, residues 23–388, I342R L346D) (Q13618 23-388 I342R/L346D): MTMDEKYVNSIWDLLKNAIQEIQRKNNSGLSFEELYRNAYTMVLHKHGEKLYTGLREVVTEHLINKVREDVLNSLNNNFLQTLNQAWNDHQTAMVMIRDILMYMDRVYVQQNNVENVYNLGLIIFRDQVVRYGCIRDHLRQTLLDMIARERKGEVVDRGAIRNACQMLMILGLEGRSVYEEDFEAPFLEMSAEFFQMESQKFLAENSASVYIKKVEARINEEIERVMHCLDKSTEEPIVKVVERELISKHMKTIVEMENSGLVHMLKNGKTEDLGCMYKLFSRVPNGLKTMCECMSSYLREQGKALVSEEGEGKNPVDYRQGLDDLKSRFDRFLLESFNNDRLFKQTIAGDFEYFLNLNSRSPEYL

B1: KLHL3-BB (human KLHL3 BTB-BACK domain, residues 24–276) (domain or fragment)
chain: RTITVNPAHMGKAFKVMNELRSKQLLCDVMIVAEDVEIEAHRVVLAACSPYFCAMFTGDMSESKAKKIEIKDVDGQTLSKLIDYIYTAEIEVTEENVQVLLPAASLLQLMDVRQNCCDFLQSQLHPTNCLGIRAFADVHTCTDLLQQANAYAEQHFPEVMLGEEFLSLSLDQVCSLISSDKLTVSSEEKVFEAVISWINYEKETRLEHMAKLMEHVRLPLLPRDYLVQTVEEEALIKNNNTCKDFLIEAMKYH
Consider B1, for which the results for the Kd in test [1] and in test [2] were 0.0362 µM and 0.0229 µM, respectively.
